A protein production outcome set (Wang et al. 2014)

Test: label from the status in PepcDB records

| Sequence | protein production |
| --- | --- |
| MYHILIRKGLLNMKTVLIVGANGRVSIEATKIFLENSRFNVDLFLRNAHRIPDYASNRIKVYEGDAKNIEDLESALNNVDVVFASLSGSLDKQAETIVKAMDNKNVKRLIFVAAPGIYDELPEPFNQWNKEQFGEKLNRYRKASDIIENSDLDYTIIRPGWLTDKNENVYEITAKNETFKGTEVSRKSVASLAVQIAKNPELHSKENIGVNKPNTEGNKPAWFN | failed |
| MYHVTVGISEKEYDAFAIASSQTNLLHSSKWAQVKSNWQNERLGFYKDDQLVAVASILIKSLPLGFTMLYIPRGPIMDYSNKELVNFVLKTLKNFGRKKRAVFAKFDPALLLRQYHLKEENVAEEIDESRQAIDNLKSAGAQWIGPTKAISETIQPRFQANIYTKANIEENFPKHTKRLIKDAKHRGVQIYRANIDDLPKFATVVALTENRKGVALRNENYFHQLMTIYGEDAYLYLAKVNLPKRLAQFKEQLLQIQKDLSETPSHQKSRLTRLNQQEASVKQYILEFQEFSKKYPDEPVIAGILSIRFGNVLEMLYAGMDDSFRKFYPQYLLNARVFEDAFKNDIVSANLGGVEGSLNDGLTKFKSNFNPMFEEYIGEFNLAINPLLYKLANLAYTIRKKQRHSH | failed |
| MYIMNIFITDFYHRNDLLDKAEAMIANHWPAFMMGTSVDDSYWERLYDVPFSHYQFMAVLKTQTEEKVIGVINSIALPWQTNSLNDLPDEGWDRVFQLGMEAEEQQLPCHLISALSVTIDHHYRGKGIAQRLINTLKEHAKKQGYLGVAVPVRPTLKHCYPLHSFAEYCQWKNDNDEPFDPWIRTHWRL | failed |
| MYKCLIISILTWFSCIVSVYAQAIPKEARNYLEEGKIYYDGANYLKALDSYLGAYKFVPNDPGVNYSIALCYIQTYSYDKALTYLIPAKKAGIKDPLLDYYMGLAYHANSNIDEALKSLTAFQSTLRSSDKELTAQTAKYITYCNNAKTLMLTPVKMTITNLGASVNSAYPDYNPAISVDESTIIYTSRRPNSTGGLISEMDGHYFEDIYMSNKQTNNSWGTSIQIDQTINTTSHDACVGLSSEGQTMIVYKDDGGGDLYYSNLSGQNWSKPISFGKAINTDGWEACGNFSPDGNYLFFVSNKKGGFGGTDIYYAVKNAAGVWGAPVNMGPEINTKEDEFSPYLHADGKTFYFSSQAHTSMGGFDIFQSTIDLSMQPIAVKSKPENLGYPINTVGDEIYFVWSADNKRAYFSSAREGGLGDKDLYLLERPVAKAALVLLKGTISDCKTKEFIQASITVTDIESGKLIGKYVSNSSTGKYIVTLPAGKNYSITVEAKGYLFHSKNINIPKLEEFKEIDDVICLDKIDIGTTIVLNNVFFDVNKSTLRKESETELDKLFDILSKNPKIKIEVAGHTDSDGDTQANLTLSDARAHTVKDYLIGKGISADRIIYVGHGEGKPVVPNDTPENKQLNRRTEIKILEN | failed |
| MYKLSLVIKSLIIALLTTSLLSAGFQLRGDYLLDDDLQTLYVSSSDIHGELTRLVKLNLTRNQVNVLKHSKADVPELRILSDKLDRRTLSLFSNGQVAEYELIYSVHYQVRFTGEDARDFRFELYRDYQDDPNIALAKSRELSLLLSEMRTSAADKILRDLARIQRLEHHHHHH | failed |
| MYKSLFTIIILLYSASSYAKSESPPASTITFIAQIDHVELNKTALSHDMKLVLADRFYFKTSNPCETNSISARPESMDITDKAYADKLKKLETPFLDDRYFFMTINQCDGNGTPMLTDIKVCTTELCGAEYTKKMSTVWLDETLKPTAKRLAIYFIQSPLPYDEEKKQWKVTGWYISSTDNQSSTKQIAFEGYTDTDNLSDSKFISSFKSWFESGKIKNIANYNPKGERDGKYESYYNSNGNVYESLSFSNGLINGEFITYYENGAIESKRHFNNDKIKDGECPHFYEDGKIKQQHSYLNSKLDGPAYEYYPDGKLMQENFYQQSVLIGNDTSYYQSGKISSIHNRNSRGQYDGANERYSEEGKLLSKSVYKDGKQISVQTWYENGQKEEEKHFDEQGQLNGLVKQWYKNGNLAKSQNYKHDILDGNSEEWYENGIPESLYPYKNGKTDGIAKSWNKYGKLTYSIEYKNGVENGAYRNWSKNTGKLTKETLYVNGIRQGVEKEFNDRTGKLLTSTQYVNNKRHGTEETYDQNGIKYITCYQNDQKLSSLDNPTQIKDNATTGDSSAQFALGKYEFICANIDEGIKWLTKSAEQKNTDAIYFLATAYKGNGIPANNEKYLAYLQQAATLGSSNAQAEIGYLYLIGKELPQNLPDAGVWFKKAAAQGNFAAHFYLGRMYQNGDGVERNMEKARFHLSNAAEGGIEPALKALNELEHQTK | failed |
| MYLAASADTKPLPDSDDEEDQHTNAVSIPIAVHNMASALLQVEQAIGKRFLKEPYGMKKWDPKQEALKLACDSRLHQWEVSLMESTSFAQVFLHLNILHDCIQWRRSTNKSLCKVCRRGSDPEKMLLCDECNAGTHMFCLKPKLRSVPPGNWYCNDCVKSLGLSNG | failed |
| MYLVCGEALFDVFSLESAARSNELGFTAIAGGSPFNVAVGLRRLGVEAALFGGLSSDYLGARLRRVLEEEGVDCGFLVPSDAPTTLAMVGLDASGSAQYQFRGEGCADRQVRLEHLPTLDGRIRGLHVGSYTLVVTPVADTLLALVRRESGRRLVSLDPNVRLDPQPDIDLWRRRVEAFASHAHLIKASEEDLALLYPGRDPGEVARGWLNPRCRLVFVTHGGAGASVHCTHGSWSRPADTALPLRDTVGAGDTFQAATLAYLRRLDADSPAGLAALSREAIDAMLAFAIRAAAVTCSRVGPDLPFAHEL | failed |
| MYNAQLGIGILKYVNTMTKYSALLVLFLFSMIANSINAQPFVALDNRNKIELNEHDLWFKTQSLDTNPSFLALSQLHQNANRVTSTFGGSGAYISKIKLTNTKGQKDTWFVNIHAVYLDIGTAYWQPEHGEPIVLESFGHMGSENPKLAHSQAFSLLLNQNESGTLWVYIQAKMFATPVVVELYSKKEFYKKQFITNSISTISFTVMMTLALIAFFIYLRTKYLVTLACTGYIGIQGLGWFTASGSFGHLLTVSAFNPVYSGIIIFPFAIASASQFTKLLFNCPQKHPKLTLTFNLLSIVCFSLGIIMPFIPFTQSFLISHIIATIWIPLCIGTGIFMLAKNDFRAKYYLIGNLVYGFTLAGYILSHLYKIDWNISLEVIVQIALTIDCMCILLSLSEWLQIQQKEFHRSYAISRIDPLTQIGNRFAQNEKLASLKGPYCITFIDLDGFKKINDKLGHEEGDKVLIATANIMQKKLQELGSIYRCGGDEFIWVVDIENVQQTEAIITKLSDLLLQTEKELQHRGWSEAGLSFGIATSFETLNQSECLSLADQRMYKYKQDKKSIKGLAACS | failed |
| MYNILLIFIAFLLVLLNAFFVSAEFGMVKLRATRIQAIKENYGLRGRILEQVHQNLDAYLSACQLGITLASLGLGWIGEPAFAELLGPLFVALGISSVHIVTISSFFIAFFLISFLHIVIGELMPKSIAIRQSELISIWTAVPLYWFYWIMYPAIWLLNTCSNFFLKLSGMDIKNEYEGFYSSEELKLILSGQHLQSELKEDEREILEHTLDLAELNVTEVMRPEDEMIIIDINEPFETIKDKILKYRYSRYPVYDSGTKEMIGVIHVKDLFADLLLQKNINTLKPYVRPVLKVSHKLPAMDLLRKFRAGMPHFALVYKHKSSLLGFVTLDNLLHILIGRIKDEFHKTHEDWVKNSDGTITTKGDCSLYSLERALDCDITLSPDEEELNTLYGLIITRHGKLPNEGEIIQFVEFDALIEKVQDSFITKIKVFPKIKN | failed |
| MYNKTILESQHTLIPMPSTSTNAQPTLAKQLFTMTWPMLFGVLSLMSFQLVDSAFIGQLGVLPLAAQGFTLPLQMVIIGIQVGLGIATTAVISKALGANDARYAKQLGGLVLMIGSIGVAVFGLLIWLLRYPILSLLSAPETVMPIIDSYWPWWLLSSWAGAVLYFYYSICRANGNTMLPGTMMMVTSGVNLVLDPLFIFTLDLGINGAALATLVAFGFGILVVAPRVKRNHWATTQWQDLNVMKSVTSIGNIMGPAMVSQLLPPLSSMLATKLLASFGTAAVAAWALGSRYEFFAIVSVLALTMSMPPMVGRLLGAKNYRDIQSLVGIAVKFILGFQLLIAAITFLLANPLALLMTSDTQVEQVLHMHLMIVPISLGSLGVCMLMVSICNALGKSYTALTISALRLFVFFLPCLWLGAQLDGIRGLLFGACVGNIMAGISAYLTYRKTIHKLAIKQATA | failed |
| MYSMLKRVITEKDLLRQIRLLEQLLNVPQLTAKRLAAQIQTTERTVFSDLQYIRSQLPADWSIETDSSGIRLRNQGNAQTNELWSLFLPQSISIQLLKELLFTKELVTTSFLSTSGVSYETLKRHIKKMNQALRDFHLTIQLTTMTIQLIGAESNIRIFYHRLLVPFTHNNYFFDDYSIHEEHYFQFLKQVYSSELTVETEEIFGACWFFINTIRNKANCRVSQFSFDSKDVLFQLYQPSLAKLYASEGIYLQGEESFFAFFCFLESWNYDNVYGETLASALHTHYSQLRKSLQQFVTNLSTEEARPDLIQTNLLDNLLLLFIKYTESPTLSEQFQLEYQELMTEQAAEDLALSKSNQELLEILSRYTTIEEPTYFLSLASLLEKQAIYSIQAQTMTAYFLFQGEPAWKAFLQQELAAYLGTRVKLQAIEYVELSQLTLNEADIIISNFPLDHLDLPVFYLSLIPTKNELRRLAELTLHSYF | not failed |
| MYSSGNPTNIANPIKDASVQIDLKTVGGKLTLYQTTLCERISGDNIDLGLDLGSQSFLPTYNKNDIQLICCQADASVLWLVPDTVVTRFIQSLDWDTDMDITFTWVLNRDRPKGKETVKYERSVDPLDLPKRSDIQMVLNGSMDGFRVHNLYPKFFRVTGSGDVRSFEDQTDEVSADILINHANFKWWWSFHNLKASENISACEGMDGPVAIIMSEETPPPVGRFIRLQCSDLRMRIPYENLPSCDRLIAICEDLYAARAEGELGVEEVLYWTLVKIYRSPHMLLEYTKLDYDA | failed |
| MYTIYVPGLRDPDLCNHSLMAEILCIYSSNAFEKIRKYDNLFTYVDYGNLKESELYKKRNEEESSFLYKKRILSNNIQDKKLKFDIKKEQFNYGALLFFSLNDGEFLNYISENICGNSVEVLASNNSMTTLVCGDDKGFIRILRNNPKYDDFEIKNTQMIRDVDKECCTKLFNNKIIKIDERRRNSYQTKRKKSIDKQQDLLKKAKMENFSDH | failed |
| MYTYKLQDEKPICSEKLKRLYDSVGWWPERKEIDIQKMLKNSIAIGVWKENELIGFARVVSDGVFRAYLEDVVVHESVRNKGIGEKMLTMLLEEISHINIVSLFCGEKLIKFYGQQQFQVTK | failed |
| MYVREVKDGKVVVAKARTSACGSCPAKNICLSDNEIKLEIDWCGEDLKPGDEVVVDIPEYDPLKVSTLVYFLPLVIFAVTVITGYLFRLKDWVTFVLALGSVFAYYSLFRFRRKDRKPPRILRKVS | failed |
| NAEKVALAKKVADESAVLLENRNDILPLDLNKYKSVAVVGPNSNQAVLGDYAWTMGDTKEAVSLLQGLQESAGDKIMIRHAEGCDWWSQDKSHIAEAVEVVRNSDIAVVAVGTRSTYLGRSPKYSTAGEGFDLSSLELPGVQEELLKEIKKTGKPMIVVLIAGKPLAMPWVKENADALLVQWYAGEQQGCTLADILLGKVNPSGKLNVSFPRSTGNTPCFYNHFVTDREEPFDQPGTPEEPKGHYIFDKPEPLWNFGHGKSYTTF | not failed |
| NAEKVALAKKVADESAVLLENRNDILPLDLNKYKSVAVVGPNSNQAVLGDYAWTMGDTKEAVSLLQGLQESAGDKIMIRHAEGCDWWSQDKSHIAEAVEVVRNSDIAVVAVGTRSTYLGRSPKYSTAGEGFDLSSLELPGVQEELLKEIKKTGKPMIVVLIAGKPLAMPWVKENADALLVQWYAGEQQGCTLADILLGKVNPSGKLNVSFPRSTGNTPCFYNHFVTDREEPFDQPGTPEEPKGHYIFDKPEPLWNFGHGKSYTTFDYVD | failed |
| NDDIIVNWVNRTLSEAGKSTSIQSFKDKTISSSLAVVDLIDAIQPGCINYDLVKSGNLTEDDKHNNAKYAVSMARRIGARVYALPEDLVEVKPKMVMTVFACLMGRGMKRV | not failed |
